Changes are numbered by the printed parent chain. Where no end group is shown, it is not given here.
T1: S316E mutant sSortilin (Homo sapiens, UniProt Q99523, S316E)
T1 construct: His6 (C); made in house; host or cells: CHO cells
T1 sequence (Q99523 78-755 S316E): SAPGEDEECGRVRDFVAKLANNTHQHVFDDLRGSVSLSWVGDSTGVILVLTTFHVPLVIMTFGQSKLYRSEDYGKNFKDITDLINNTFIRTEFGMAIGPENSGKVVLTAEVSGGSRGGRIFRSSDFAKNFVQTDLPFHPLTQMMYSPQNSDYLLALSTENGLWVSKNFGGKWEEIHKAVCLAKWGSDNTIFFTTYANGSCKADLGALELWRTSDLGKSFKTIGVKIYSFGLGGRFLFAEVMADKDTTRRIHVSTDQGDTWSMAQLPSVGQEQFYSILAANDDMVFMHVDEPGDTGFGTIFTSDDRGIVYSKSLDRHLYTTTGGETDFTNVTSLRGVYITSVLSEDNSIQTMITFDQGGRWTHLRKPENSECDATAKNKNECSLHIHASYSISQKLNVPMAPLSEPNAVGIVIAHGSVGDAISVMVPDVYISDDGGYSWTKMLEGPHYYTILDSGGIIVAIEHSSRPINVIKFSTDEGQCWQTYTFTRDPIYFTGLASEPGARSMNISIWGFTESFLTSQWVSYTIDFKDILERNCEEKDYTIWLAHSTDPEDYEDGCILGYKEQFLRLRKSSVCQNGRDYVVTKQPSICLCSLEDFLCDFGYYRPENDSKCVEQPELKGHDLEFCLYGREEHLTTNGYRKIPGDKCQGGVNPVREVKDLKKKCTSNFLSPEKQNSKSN

T2: sSortilin (Homo sapiens, UniProt Q99523)
T2 construct: Soluble Sortilin (sSortilin); His6 (C); made in house; host or cells: CHO-K1
T2 sequence (Q99523 78-755 limits assumed): T1 sequence (Q99523 78-755 S316E) with E239S

B1: NGFpro: propeptide of Nerve Growth Factor, residues 19-121 of SEQ ID NO:6 (protein)
chain: EPHSESNVPAGHTIPQVHWTKLQHSLDTALRRARSAPAAAIAARVAGQTRNITVDPRLFKKRRLRSPRVLFSTQPPREAADTQDLDFEVGGAAPFNRTHRSKR
modifications: left off: a dimerising Fc or GST

Experiments:
S316E mutant sSortilin = biological target: T1, S316E mutant sSortilin; assay: Surface plasmon resonance: ligand binding to purified sSortilin S316E mutant; settings: compared with wtSortilin
Protocol: (§1) Surface plasmon resonance (SPR) measurements were performed on a BIAcore 2000 instrument (Biacore Sweden) equipped with CM5 sensor chips maintained at 20° C. A continuous flow of HBS buffer (10 mM HEPES pH 7.4, 3.4 mM EDTA, 150 mM NaCl, 0.005% surfactant P20) passing over the sensor surface was maintained at 5 μl/min. […] A sortilin solution (320 μl, 5 μg/ml in 10 mM sodium acetate pH 4.0) was then injected over flow cells 1 and 2 at a flow rate of 15 μl/min. Remaining binding sites in all three flow cells were blocked by injection (5 μl/min) of 70 μl of 1 M ethanolamine pH 8.5. […] Screening of the samples was performed by injecting aliquots of 50 μl, at concentrations of 0.1-8 μM, through all flow cells with a flow rate of 5 μl/min. Unless otherwise stated, the samples were dissolved in 10 mM HEPES pH 7.4, 150 mM NaCl, 1.5 mM CaCl2, 1 mM EGTA, 0.005% surfactant P20. Sample buffer was also used as running buffer. The BIAcore response is expressed in relative response units (RU), i.e. the difference in response between the immobilized protein flow cell and the corresponding control flow cell (activated and blocked but without protein). Regeneration of the sensor chip after each cycle of analysis was performed by injecting 20 μl of 10 mM glycine/HCl pH 4.0, 500 mM NaCl, 20 mM EDTA and 0.005% surfactant P20. For calciumfree conditions, HBS containing 20 mM EDTA was used as sample as well as running buffer.

sSortilin [1] = biological target: T2, sSortilin; assay: Surface plasmon resonance: ligand binding to immobilized sSortilin in absence or presence of Neurotensin derived peptides; settings: for inhibition of binding of Sort-pro (GST-Sort-pro) to sSortilin: FIG. 3A+B
Protocol: as §1

sSortilin [2] = biological target: T2, sSortilin; assay: Surface plasmon resonance affinity of NGFpro and icosapeptides for immobilized sSortilin; format: binding; settings: BIAcore 3000, 20° C., read-out: dissociation constant (Kd)
Protocol: All measurements were performed on a BIAcore 3000 instrument (Biacore Sweden) maintained at 20° C. A continuous flow of buffer F (10 mM HEPES pH=7.4, 150 mM (NH4)2SO4, 1.5 mM CaCl2, 1.5 mM EGTA and 0.005% Tween-20) was passed over the CM5 chip sensor surface at 5 μl/min. The affinity of NGFpro and the peptides for immobilized sSortilin were determined. The dissociation constant (Kd) for NGFpro was ˜10 nM and for peptide-4 (SEQ ID NO:51) ˜5 μM. The ability of the peptides to compete with NGFpro for binding to sSortilin was tested as well.

| Molecule | binding to S316E mutant (S316E mutant sSortilin) | inhibition of binding of Sort-pro (GST-Sort-pro) to sSortilin (sSortilin [1]) | other results |
| --- | --- | --- | --- |
| Sort-pro: Sortilin's own propeptide, residues 34-77 of SEQ ID NO:1, fused to GST (QDRLDAPPPPAAPLPRWSGPIGVSWGLRAAAAGGAFPRGGRWRR; also: fused to GST) | no binding | – | – |
| Arg8-Arg-Pro-Tyr-Ile-Leu13-NH2 [reference compound] | – | fails to inhibit | – |
| Tyr-Ile-Leu [YIL] | – | full inhibition | inhibition of binding of the prodomain of NGF to sSortilin (sSortilin [1]; FIG. 3C, not as efficiently as full length NT): hampers binding; inhibition of binding of RAP to sSortilin (sSortilin [1]; FIG. 3D, not as efficiently as full length NT): hampers binding; affinity for Sortilin (sSortilin [1]; summary statement): high affinity |
| BDNF: Mature BDNF, SEQ ID NO. 7 residues 128 to 246, purchased from R&D Systems | affinities similar to that of wtSortilin | – | – |
| ITVDPRLFKKRRLRSPRVLF-NH2 [peptide-4] | – | – | Kd (sSortilin [2]): ~5 µM |
| B1 | affinities similar to that of wtSortilin | – | – |
